{"source": "paper PMC3794917", "key": {"[1]": {"biological_target": "Rad51;Rad52-L264P L264P (Saccharomyces cerevisiae) (UniProt P06778)", "sequence (P06778 whole entry L264P, looked up)": "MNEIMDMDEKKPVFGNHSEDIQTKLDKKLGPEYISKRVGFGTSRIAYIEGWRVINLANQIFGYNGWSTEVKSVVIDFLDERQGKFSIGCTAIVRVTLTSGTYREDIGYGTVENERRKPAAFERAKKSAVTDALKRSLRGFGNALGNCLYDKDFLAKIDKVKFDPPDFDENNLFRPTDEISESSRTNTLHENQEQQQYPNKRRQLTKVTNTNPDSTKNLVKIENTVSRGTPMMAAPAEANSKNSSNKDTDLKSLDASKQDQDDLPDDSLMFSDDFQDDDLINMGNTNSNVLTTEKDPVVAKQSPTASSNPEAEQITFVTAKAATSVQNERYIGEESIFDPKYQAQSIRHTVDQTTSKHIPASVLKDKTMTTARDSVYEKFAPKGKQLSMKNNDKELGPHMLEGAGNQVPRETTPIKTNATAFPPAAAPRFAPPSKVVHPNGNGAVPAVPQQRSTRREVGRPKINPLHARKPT", "test": "EMSA (glutaraldehyde-fixed, agarose)", "conditions": "Rad52 EMSA: 10 mM Tris-HCl pH 8, 5 mM MgCl2, 100 mM NaCl, 37 C, 10 min, 0.27 uM XV2, 8% native PAGE, filament assays: SEB buffer, 60 mM NaCl (or titrated) …, scale: mM NaCl"}, "[2]": {"biological_target": "Rad51;Rad52 (Saccharomyces cerevisiae) (UniProt P06778)", "sequence (P06778 whole entry, looked up)": "as the sequence (P06778 whole entry L264P, looked up) above, with P264L counted along it", "test": "EMSA (glutaraldehyde-fixed, agarose)", "conditions": "Rad52 EMSA: 10 mM Tris-HCl pH 8, 5 mM MgCl2, 100 mM NaCl, 37 C, 10 min, 0.27 uM XV2, 8% native PAGE, filament assays: SEB buffer, 60 mM NaCl (or titrated) …, scale: mM NaCl"}, "[3]": {"biological_target": "Rad51;Rad52-L264P L264P (Saccharomyces cerevisiae) (UniProt P06778)", "test": "EM", "conditions": "RPA pre-bound, 60 mM NaCl (WT Rad52 55%); Rad52 EMSA: 10 mM Tris-HCl pH 8, 5 mM MgCl2, 100 mM NaCl, 37 C, 10 min, 0.27 uM XV2, 8% native PAGE; filament assays: SEB buffer, 60 mM NaCl (or titrated) …; scale: % of complete Rad51 filaments associated with Rad52-L264P"}, "[4]": {"biological_target": "Rad51;Rad52 (Saccharomyces cerevisiae) (UniProt P06778)", "test": "EM", "conditions": "RPA pre-bound, 60 mM NaCl, Rad52 EMSA: 10 mM Tris-HCl pH 8, 5 mM MgCl2, 100 mM NaCl, 37 C, 10 min, 0.27 uM XV2, 8% native PAGE, filament assays: SEB buffer, 60 mM NaCl (or titrated) …"}}, "data": [{"substance": "400-nt ssDNA fragment", "values": [{"measurement": "K half", "setting": "[1]; RPA pre-bound, NaCl added after assembly, no difference from WT", "value": 400}, {"measurement": "K half", "setting": "[1]", "value": 90}, {"measurement": "K half", "setting": "[2]; RPA pre-bound, NaCl titration during assembly", "value": 90}, {"measurement": "K half", "setting": "[2]", "value": 400}, {"measurement": "binding signal", "setting": "[3]", "value": 74}, {"measurement": "binding signal (% complete Rad51 filaments)", "setting": "[4]; 55% of complete filaments carry Rad52", "value": 48}, {"measurement": "binding signal", "setting": "[4]; scale: % of complete Rad51 filaments associated with Rad52", "value": 55}]}]}
